Measured values reported in publication PMC2568865, “Hsp90-Dependent Activation of Protein Kinases Is Regulated by Chaperone-Targeted Dephosphorylation of Cdc37” (Molecular Cell, 2008).

How the values were obtained:
[1] = target: T1, full-length human Hsp90α (human, UniProt P07900 1-732); test: pull-down; GST-PP5 on glutathione Sepharose with Cdc37 or CK2-phosphorylated Cdc37 preincubated with Hsp90α for 1 hr; 4°C, 2 hr; 50 mM HEPES pH 7.5, 150 mM NaCl, 0.1% NP40, BSA; PP5 dephosphorylates Cdc37 during the incubation; details: both partners purified
T1 construct: human Hsp90α

[2] = target: T2, pSer13-Cdc37 (human Cdc37 expressed in Sf9 cells, phosphorylated on Ser13) (human, UniProt Q16543 1-378, phosphoserine at 13); test: co-purification (His6 affinity); human Cdc37 and N-terminally His6-tagged Cdk4 co-expressed in Sf9 cells by baculovirus; complexes purified via the His6 tag on Cdk4; Coomassie-stained SDS-PAGE; details: partners not purified
T2 construct: human Cdc37 (p50), phosphorylated on Ser13 in the insect cells; also called p50; Sf9-expressed Cdc37; source: Sf9 cells, baculovirus; purified in the C-K and H-C-K complexes with His6-Cdk4; free Cdc37 obtained as a by-product of the H-C-K complex purification
T2 sequence (looked up): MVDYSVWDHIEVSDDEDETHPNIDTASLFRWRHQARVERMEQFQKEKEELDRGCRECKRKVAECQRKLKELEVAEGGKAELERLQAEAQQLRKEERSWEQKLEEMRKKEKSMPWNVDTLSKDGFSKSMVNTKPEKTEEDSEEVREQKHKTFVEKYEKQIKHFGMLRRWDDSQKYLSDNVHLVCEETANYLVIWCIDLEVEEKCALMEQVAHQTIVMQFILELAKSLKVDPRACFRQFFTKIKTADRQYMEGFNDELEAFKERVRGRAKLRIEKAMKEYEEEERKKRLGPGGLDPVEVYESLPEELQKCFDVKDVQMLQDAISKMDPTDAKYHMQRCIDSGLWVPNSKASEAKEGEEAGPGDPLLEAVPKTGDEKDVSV

[3] = target: T3, Cdc37 (human, Sf9-expressed) dephosphorylated with λ-phosphatase (human, UniProt Q16543 1-378); test: SEC; purified C-K complex incubated with or without λPP (1:10) for 1 hr at room temperature; Superose 6 HR10/30 in 50 mM Tris pH 7.5, 10 mM KCl, 10 mM MgCl2, 150 mM NaCl, 1 mM EDTA, 3 mM DTT; 1 ml fractions probed by Western blot; details: both partners purified
T3 construct: human Cdc37 (p50), Ser13 dephosphorylated in vitro by λPP; Same construct as m2 after treatment with λPP; also called dephosphorylated Cdc37; Cdc37 in dephosphorylated C-K or H-C-K complex; source: Sf9 cells, baculovirus; purified in the C-K and H-C-K complexes, then dephosphorylated with λ-phosphatase (NEB)
T3 sequence (looked up): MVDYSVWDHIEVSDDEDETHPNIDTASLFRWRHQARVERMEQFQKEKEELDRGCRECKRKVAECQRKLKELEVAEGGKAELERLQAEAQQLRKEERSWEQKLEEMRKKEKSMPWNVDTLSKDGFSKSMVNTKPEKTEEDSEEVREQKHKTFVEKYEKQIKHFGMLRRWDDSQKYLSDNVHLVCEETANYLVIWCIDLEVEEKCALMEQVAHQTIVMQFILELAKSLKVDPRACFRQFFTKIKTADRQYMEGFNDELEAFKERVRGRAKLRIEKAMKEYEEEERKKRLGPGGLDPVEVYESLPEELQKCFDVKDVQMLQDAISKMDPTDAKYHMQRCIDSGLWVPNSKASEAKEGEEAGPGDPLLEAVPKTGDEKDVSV

B1: pSer13-Cdc37 (E. coli-expressed Cdc37 phosphorylated in vitro with CK2) (natural protein, human, UniProt Q16543 1-378, looked up)
chain: MVDYSVWDHIEVSDDEDETHPNIDTASLFRWRHQARVERMEQFQKEKEELDRGCRECKRKVAECQRKLKELEVAEGGKAELERLQAEAQQLRKEERSWEQKLEEMRKKEKSMPWNVDTLSKDGFSKSMVNTKPEKTEEDSEEVREQKHKTFVEKYEKQIKHFGMLRRWDDSQKYLSDNVHLVCEETANYLVIWCIDLEVEEKCALMEQVAHQTIVMQFILELAKSLKVDPRACFRQFFTKIKTADRQYMEGFNDELEAFKERVRGRAKLRIEKAMKEYEEEERKKRLGPGGLDPVEVYESLPEELQKCFDVKDVQMLQDAISKMDPTDAKYHMQRCIDSGLWVPNSKASEAKEGEEAGPGDPLLEAVPKTGDEKDVSV
modifications: phosphoserine at 13
notes: human Cdc37 (p50), phosphorylated on Ser13 by CK2 in vitro; also called phosphorylated Cdc37; pCdc37; source: E. coli, purified, phosphorylated in vitro with CK2 (Promega), further purified on Resource Q
B1: binds [1].

B2: Cdc37 (E. coli-expressed, unphosphorylated) (natural protein, human, UniProt Q16543 1-378, looked up)
chain: MVDYSVWDHIEVSDDEDETHPNIDTASLFRWRHQARVERMEQFQKEKEELDRGCRECKRKVAECQRKLKELEVAEGGKAELERLQAEAQQLRKEERSWEQKLEEMRKKEKSMPWNVDTLSKDGFSKSMVNTKPEKTEEDSEEVREQKHKTFVEKYEKQIKHFGMLRRWDDSQKYLSDNVHLVCEETANYLVIWCIDLEVEEKCALMEQVAHQTIVMQFILELAKSLKVDPRACFRQFFTKIKTADRQYMEGFNDELEAFKERVRGRAKLRIEKAMKEYEEEERKKRLGPGGLDPVEVYESLPEELQKCFDVKDVQMLQDAISKMDPTDAKYHMQRCIDSGLWVPNSKASEAKEGEEAGPGDPLLEAVPKTGDEKDVSV
notes: human Cdc37 (p50), not phosphorylated; also called WT-Cdc37; nonphosphorylated Cdc37; source: E. coli, purified
B2: binds [1].

B3: His6-tagged Cdk4 (enzyme, human, UniProt P11802 1-303, looked up)
chain: MATSRYEPVAEIGVGAYGTVYKARDPHSGHFVALKSVRVPNGGGGGGGLPISTVREVALLRRLEAFEHPNVVRLMDVCATSRTDREIKVTLVFEHVDQDLRTYLDKAPPPGLPAETIKDLMRQFLRGLDFLHANCIVHRDLKPENILVTSGGTVKLADFGLARIYSYQMALTPVVVTLWYRAPEVLLQSTYATPVDMWSVGCIFAEMFRRKPLFCGNSEADQLGKIFDLIGLPPEDDWPRDVSLPRGAFPPRGPRPVQSVVPEMEESGAQLLLEMLTFNPHKRISAFRALQHSYLHKDEGNPE
notes: Cdk4, Cdc37/Hsp90-dependent protein kinase; also called K (in C-K and H-C-K); source: Sf9 cells, baculovirus, co-expressed with human Cdc37; purified via the His6 tag as C-K and H-C-K complexes; not shown: His6, N-terminal, kept
B3: binds [2]; binds [3].
